Experimental data as given in PMC3549482.
Where two headings read alike, the source gives them in different places.

Columns and labels:
[1] = molecular target: CD81 on 293-T cells (human (endogenous in HEK 293-T)) (UniProt P60033); assay: flow cytometry on cells
[2] = molecular target: CD81 on 293-T cells (human (endogenous in HEK 293-T)) (UniProt P60033); assay: flow cytometry on cells; remark: listed apart in the source

UniProt P60033, sequence (P60033 whole entry): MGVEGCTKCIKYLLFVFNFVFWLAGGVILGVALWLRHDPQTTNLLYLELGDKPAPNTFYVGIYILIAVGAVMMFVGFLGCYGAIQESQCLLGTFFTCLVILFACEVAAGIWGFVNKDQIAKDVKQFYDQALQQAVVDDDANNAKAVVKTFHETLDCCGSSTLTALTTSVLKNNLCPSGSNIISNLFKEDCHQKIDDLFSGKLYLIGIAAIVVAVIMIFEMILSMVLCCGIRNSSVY

HCV E2 (strain not told for the experiment on 293-T cells) (natural protein)
Mean FI [1]: 62 | Mean FI [2]: 79
